From patent US20200317768A1 (published 2020)
Positions count from the first letter of the chain named. In names and notes the source's numbering stands.

T1: cynomolgus monkey FcγRIIb extracellular domain, C-terminal His-tag (cynomolgus monkey)
T1 construct: also called cyno FcγRIIb; cynoFcγRIIb; not shown: His-tag added to the C-terminus
T1 chain: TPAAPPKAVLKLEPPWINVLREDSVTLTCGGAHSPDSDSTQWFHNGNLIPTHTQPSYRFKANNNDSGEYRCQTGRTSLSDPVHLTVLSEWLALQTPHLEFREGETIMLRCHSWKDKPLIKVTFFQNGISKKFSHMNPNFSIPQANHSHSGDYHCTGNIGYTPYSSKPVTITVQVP

T2: cynomolgus monkey FcγRIIa1 extracellular domain, C-terminal His-tag (cynomolgus monkey)
T2 construct: also called cyno FcγRIIa1; FcgRIIa1; not shown: His-tag added to the C-terminus
T2 chain: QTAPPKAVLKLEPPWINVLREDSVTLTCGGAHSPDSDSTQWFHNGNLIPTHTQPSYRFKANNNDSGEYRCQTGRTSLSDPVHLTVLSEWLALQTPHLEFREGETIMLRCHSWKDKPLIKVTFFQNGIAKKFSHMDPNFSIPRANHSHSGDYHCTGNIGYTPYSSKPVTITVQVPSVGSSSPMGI

T3: cynomolgus monkey FcγRIIa2 extracellular domain, C-terminal His-tag (cynomolgus monkey)
T3 construct: also called cyno FcγRIIa2; FcgRIIa2; not shown: His-tag added to the C-terminus
T3 chain: T2 chain with P95T, T121A, I127K, A128S, K130N, D135N, R142Q

T4: human FcγRIIaH extracellular domain, C-terminal His-tag (human, UniProt P12318 34-217)
T4 construct: also called human FcγRIIa (type H); FcgRIIaH; not shown: His-tag added to the C-terminus
T4 sequence: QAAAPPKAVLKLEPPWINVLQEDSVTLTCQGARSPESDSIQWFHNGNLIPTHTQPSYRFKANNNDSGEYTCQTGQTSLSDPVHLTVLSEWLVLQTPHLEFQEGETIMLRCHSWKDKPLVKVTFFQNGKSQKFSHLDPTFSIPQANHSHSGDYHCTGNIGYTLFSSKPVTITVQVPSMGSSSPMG

T5: human FcγRIIaR extracellular domain, C-terminal His-tag (human, UniProt P12318 34-217)
T5 construct: also called human FcγRIIa (type R); FcgRIIaR; not shown: His-tag added to the C-terminus
T5 chain: T4 sequence with H134R

T6: human FcγRIIb extracellular domain, C-terminal His-tag (human, UniProt P31994 43-217)
T6 construct: also called FcgRIIb; not shown: His-tag added to the C-terminus
T6 sequence: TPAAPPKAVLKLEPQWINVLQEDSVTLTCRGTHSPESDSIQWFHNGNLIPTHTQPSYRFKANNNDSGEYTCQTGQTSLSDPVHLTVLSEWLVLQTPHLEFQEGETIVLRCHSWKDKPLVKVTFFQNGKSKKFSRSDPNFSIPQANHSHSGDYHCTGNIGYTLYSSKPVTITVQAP

B1: MS1032LO06-SG1 (M103205H795-SG1/M103202L889-SK1) (antibody, human IgG1, kappa)
heavy: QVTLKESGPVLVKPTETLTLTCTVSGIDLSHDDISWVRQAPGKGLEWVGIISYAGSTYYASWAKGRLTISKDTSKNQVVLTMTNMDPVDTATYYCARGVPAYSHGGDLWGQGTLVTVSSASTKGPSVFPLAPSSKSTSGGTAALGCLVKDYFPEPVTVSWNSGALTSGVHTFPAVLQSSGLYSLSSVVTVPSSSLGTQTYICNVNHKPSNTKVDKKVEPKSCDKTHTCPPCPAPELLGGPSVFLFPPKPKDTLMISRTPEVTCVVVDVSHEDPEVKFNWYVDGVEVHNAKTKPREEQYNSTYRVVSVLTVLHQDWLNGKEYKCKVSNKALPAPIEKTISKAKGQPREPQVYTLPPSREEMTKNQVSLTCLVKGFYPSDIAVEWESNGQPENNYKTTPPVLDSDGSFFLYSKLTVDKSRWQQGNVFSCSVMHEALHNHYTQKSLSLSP
light: DIVMTQSPATLSLSPGERATLSCTSSQSVYHANWLSWFQQKPGQPPKLLIYWASTLAYGVPSRFSGSGSGTDFTLTISSLQPEDAATYYCAGGYGGGRYAFGQGTKVEIKRTVAAPSVFIFPPSDEQLKSGTASVVCLLNNFYPREAKVQWKVDNALQSGNSQESVTEQDSKDSTYSLSSTLTLSKADYEKHKVYACEVTHQGLSSPVTKSFNRGEC
notes: Anti-latent myostatin antibody
B2: MS1032LO06-PK57 (M103205H795-PK57/M103202L889-SK1) (antibody, human IgG1, kappa)
heavy: QVTLKESGPVLVKPTETLTLTCTVSGIDLSHDDISWVRQAPGKGLEWVGIISYAGSTYYASWAKGRLTISKDTSKNQVVLTMTNMDPVDTATYYCARGVPAYSHGGDLWGQGTLVTVSSASTKGPSVFPLAPSSKSTSGGTAALGCLVKDYFPEPVTVSWNSGALTSGVHTFPAVLQSSGLYSLSSVVTVPSSSLGTQTYICNVNHKPSNTKVDKKVEPKSCDKTHTCPPCPAPELLNGPSVFLFPPKPKDTLMISRTPEVTCVVVDVSDEDPEVKFNWYVDGVEVHNAKTKPREEQYNSTYRVVSVLTVLHRDWLNGKEYKCKVSNKALPKPIEKTISKAKGQPREPQVYTLPPSREEMTKNQVSLTCLVKGFYPSDIAVEWESRGQPENNYKTTPPVLDSDGSFFLYSKLTVRKSRWQQGNVFSCSVMHEALHNHYTQKSLSLSP
light: B1 light
notes: CH PK57 = SG1 with G236N/H268D/Q311R/A330K/N384R/D413R (EU numbering); also called MS103205H795-PK57
B3: MS1032LO06-MY201 (M103205H795-MY201/M103202L889-SK1) (antibody, human IgG1, kappa)
heavy: B2 heavy with R313Q, R386N, R415D
light: B1 light
notes: CH MY201 = SG1 with G236N/H268D/A330K (EU numbering); also called MS103205H795-MY201
B4: MS1032LO06-PK55 (M103205H795-PK55/M103202L889-SK1) (antibody, human IgG1, kappa)
heavy: B2 heavy with P345R, R386N, R415D
light: B1 light
notes: CH PK55 = SG1 with G236N/H268D/Q311R/A330K/P343R (EU numbering); also called MS103205H795-PK55
B5: MS1032LO06-MY352 (M103205H795-MY352/M103202L889-SK1) (antibody, human IgG1, kappa, name in EU numbering)
heavy: B2 heavy with R386N
light: B1 light
notes: Printed substitutions: G236N/H268D/Q311R/A330K/D413R (EU numbering); also called MS103205H795-MY352
B6: MS1032LO06-MY351 (M103205H795-MY351/M103202L889-SK1) (antibody, human IgG1, kappa)
heavy: B2 heavy with R386N, R415K
light: B1 light
notes: CH MY351 = SG1 with G236N/H268D/Q311R/A330K/D413K (EU numbering); also called MS103205H795-MY351
B7: MS1032LO06-PK56 (M103205H795-PK56/M103202L889-SK1) (antibody, human IgG1, kappa)
heavy: B2 heavy with P345R, R386N
light: B1 light
notes: CH PK56 = SG1 with G236N/H268D/Q311R/A330K/P343R/D413R (EU numbering); also called MS103205H795-PK56

Target: T1, cynomolgus monkey FcγRIIb extracellular …
Test: SPR; KD of SG1 divided by KD of variant;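 further: relative to parent M103205H795-SG1 carrying the SG1 human heavy chain constant region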
Protocol: (§1) The kinetic analysis of interactions between these antibodies and FcγR was carried out using BIACORE® T200 or BIACORE® 4000 (GE Healthcare). HBS-EP+ (GE Healthcare) was used as the running buffer, and the measurement temperature was set to 25° C. A chip produced by immobilizing Protein A. Protein A/G or mouse anti-human IgG kappa light chain (BD Biosciences) onto a Series S Sensor Chip CM4 or CM5 (GE Healthcare) by the amine-coupling method was used. […] After the measurement, the antibody captured on the chip was washed off by allowing reaction with 10 mM glycine-HCl, pH1.5 and 25 mM NaOH so that the chip was regenerated and used repeatedly. The sensorgrams obtained as measurement results were analyzed by the 1:1 Langmuir binding model using the BIACORE® Evaluation Software to calculate the binding rate constant ka (L/mol/s) and dissociation rate constant kd (l/s), and the dissociation constant KD (mol/L) was calculated from these values. […] Regarding such interactions, KD values were calculated using the following 1:1 binding model described in BIACORE® T100 Software Handbook BR1006-48 Edition AE.

KD fold (SG1 = 1) [fold] | Binder
1 | B1
3.8 | B2
5.8 | B3
5.4 | B4
4.7 | B5
5 | B6
3.9 | B7

Target: T2, cynomolgus monkey FcγRIIa1 …
Test: SPR (BIACORE), antibody captured, soluble FcgR as analyte, 25C
Protocol: as §1
(§2) The behavior of interacting molecules according to the 1:1 binding model on BIACORE® can be described by Equation 1: Req=C·R max/(KD+C)+RI, wherein, Req is a plot of steady-state binding levels to analyte concentration. C is concentration, RI is bulk refractive index contribution in the sample, and Rmax is analyte binding capacity of the surface. When this equation is rearranged, KD can be expressed as Equation 2: KD=C·Rmax/(Req−RI)−C. KD can be calculated by substituting the values of Rmax, RI, and C into Equation 1 or Equation 2. From the current measurement conditions, RI=0, C=2 μmol/L can be used.

Kd [nM] | Binder
4800 | B1
1900 | B2
1500 | B3
1400 | B4
1700 | B5
1600 | B6
1800 | B7

Target: T3, cynomolgus monkey FcγRIIa2 …
Test: as above
Protocol: as §1, §2

Kd [nM] | Binder
4700 | B1
1700 | B2
1200 | B3
1200 | B4
1300 | B5
1300 | B6
1500 | B7

Target: T1, cynomolgus monkey FcγRIIb extracellular …
Test: as above
Protocol: as §1, §2

Kd [nM] | Binder
1900 | B1
520 | B2
330 | B3
360 | B4
420 | B5
380 | B6
500 | B7

target: T7, cynomolgus monkey FcγRIIIaS extracellular domain, C-terminal His-tag (cynomolgus monkey, UniProt A3RFZ7 21-206 (rhesus entry)); test: as above
T7 construct: also called cyno FcγRIIIaS; FcgRIIIaS; not shown: His-tag added to the C-terminus
Protocol: as §1, §2

T7 sequence (A3RFZ7 21-206): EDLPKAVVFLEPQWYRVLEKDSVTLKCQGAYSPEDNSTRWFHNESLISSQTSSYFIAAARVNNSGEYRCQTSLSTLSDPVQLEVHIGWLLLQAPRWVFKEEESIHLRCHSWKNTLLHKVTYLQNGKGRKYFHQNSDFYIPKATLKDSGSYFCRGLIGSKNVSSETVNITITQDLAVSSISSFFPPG

Kd [nM] | Binder
280 | B1
4300 | B2
3700 | B3
3300 | B4
4000 | B5
4100 | B6
4400 | B7

target: T4, human FcγRIIaH extracellular domain, …; test: as above
Protocol: as §1, §2

Kd [nM] | Binder
890 | B1
1300 | B2
980 | B3
830 | B4
1200 | B5
1200 | B6
1200 | B7

Target: T5, human FcγRIIaR extracellular domain, …
Test: as above
Protocol: as §1, §2

Kd [nM] | Binder
1000 | B1
2200 | B2
1200 | B3
1500 | B4
1600 | B5
1600 | B6
1900 | B7

target: T6, human FcγRIIb extracellular domain, …; test: as above
Protocol: as §1, §2

Kd [nM] | Binder
4700 | B1
1200 | B2
850 | B3
760 | B4
1000 | B5
970 | B6
1000 | B7

target: T8, human FcγRIIIaV extracellular domain, C-terminal His-tag (human, UniProt P08637 17-208); test: as above
T8 construct: also called FcgRIIIaV; not shown: His-tag added to the C-terminus
Protocol: as §1, §2

T8 sequence (P08637 17-208 F176V): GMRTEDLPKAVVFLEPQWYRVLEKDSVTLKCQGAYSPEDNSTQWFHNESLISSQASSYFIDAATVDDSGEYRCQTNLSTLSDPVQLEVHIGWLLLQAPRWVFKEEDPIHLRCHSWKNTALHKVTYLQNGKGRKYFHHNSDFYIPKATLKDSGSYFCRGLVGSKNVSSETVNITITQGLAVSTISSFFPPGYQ

Kd [nM] | Binder
620 | B1
23000 | B2
37000 | B3
13000 | B4
11000 | B5
7400 | B6
10000 | B7
